Consider six molecules from US20100119511A1 (Biogen, published 2010).

One test concerns the target T1, D1-D2 Her2-Fc.
T1 construct: also called MR067; ErbB2-Fc Domains 1-2; not shown: huIgG1-Fc part
T1 chain: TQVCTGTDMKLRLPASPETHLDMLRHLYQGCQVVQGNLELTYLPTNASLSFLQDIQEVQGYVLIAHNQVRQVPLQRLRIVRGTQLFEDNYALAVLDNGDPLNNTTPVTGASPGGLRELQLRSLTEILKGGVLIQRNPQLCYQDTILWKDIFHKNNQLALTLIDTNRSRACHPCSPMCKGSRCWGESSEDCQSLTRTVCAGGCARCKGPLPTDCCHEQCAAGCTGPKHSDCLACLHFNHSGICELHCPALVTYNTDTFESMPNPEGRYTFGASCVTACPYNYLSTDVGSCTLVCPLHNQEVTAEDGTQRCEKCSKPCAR
Put plainly: ELISA, HER2 domain-Fc captured on anti-huFc, detection HRP-anti-fab. Here is the method:
(§1) Nunc Maxisorp ELISA plates were coated with 5 ug/ml rabbit pAbs anti-human Fc gamma in PBS overnight at 4 degrees. Plates were washed one time with PBST (PBS, 0.05% tween 20) and blocked with 1% BSA in PBS for one hour at room temperature. Plates were washed one time with PBST and incubated with 1 ug/ml HER2-Fc fusion protein for one hour. Plates were washed three times with PBST and dilutions of Fab (four 5-fold serial dilutions, starting at 1 ug/ml) in block were added and incubated for ninety minutes. Plates were washed three times with PBST and incubated with 1:2,000 HRP-labelled goat anti-human kappa (Southern Biotech cat#2060-05) and HRP-labelled goat anti-human lambda (Southern Biotech cat#2070-05) in block for one hour at room temperature. Plates were washed three times with PBST, developed with TMB solution for 5 minutes, and stopped with equal volume 1 NH₂SO₄. Absorbance values were read at 450 nm.
A general note: ELISA stands for enzyme-linked immunosorbent assay.

The target of another test is T2, D1 Her2-Fc.
T2 construct: also called MR066; ErbB2-Fc Domain 1; not shown: huIgG1-Fc part
T2 chain: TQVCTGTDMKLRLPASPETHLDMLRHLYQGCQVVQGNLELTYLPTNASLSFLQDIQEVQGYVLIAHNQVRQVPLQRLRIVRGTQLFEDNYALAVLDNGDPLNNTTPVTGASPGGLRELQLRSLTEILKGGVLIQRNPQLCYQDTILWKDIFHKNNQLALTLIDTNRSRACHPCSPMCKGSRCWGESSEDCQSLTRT
Described as above. Here is the method: as §1

B1: BIIB65H09 Fab (Fab, V domains shown)
VH: EVQLLESGGGLVQPGGSLRLSCAASGFTFSWYSMWWVRQAPGKGLEWVSSIVSSGGQTRYADSVKGRFTISRDNSKNTLYLQMNSLRAEDTAVYYCARVKGYYYYIDVWGKGTTVTVSS
VL: DIQMTQSPGTLSLSPGERATLSCRASQSVDSSYLSWYQQKPGQAPRLLIYGASTRATGIPARFSGSGSGTDFTLTVSRLEPEDFAVYYCQQHGYSSRTFGQGTKVEIK
notes: Soluble human Fab from a phagemid Fab library
In the case of B1, the binding result was “no binding (tested: 1 ug/ml (from paragraph 380, not on the sheet))” in the test with D1-D2 Her2-Fc and “no binding (tested: 1 ug/ml (from paragraph 380, not on the sheet))” with D1 Her2-Fc.

B2: BIIB65C10 Fab (Fab, V domains shown)
VH: EVQLLESGGGLVQPGGSLRLSCAASGFTFSYYPMMWVRQAPGKGLEWVSSIWPSGGFTKYADSVKGRFTISRDNSKNTLYLQMNSLRAEDTATYYCARVSSSSWYGYLYWGQGTLVTVSS
VL: not shown
notes: as for B1
As to B2, the binding result in the test with D1 Her2-Fc was “no binding (tested: 1 ug/ml (from paragraph 380, not on the sheet))”.

B3: BIIB66C01 Fab (Fab, V domains shown)
VH: EVQLLESGGGLVQPGGSLRLSCAASGFTFSWYSMSWVRQAPGKGLEWVSSISSSGGPTHYADSVKGRFTISRDNSKNTLYLQMNSLRAEDTAVYYCARDSSYSGTSWGQGTLVTVSS
VL: QYELTQPPSVSGTPGQRVTISCSGSSSNIGSEYVYWFQQLPGTAPRLLIYRNDQRPSGVPDRFSGSKSGTSASLAISGLRSEDETDYYCTTWDDSLSGPVFGGGTKLTVL
notes: as for B1
On to B3, for which the binding result with D1-D2 Her2-Fc was “no binding (tested: 1 ug/ml (from paragraph 380, not on the sheet))”; with D1 Her2-Fc it was “no binding (tested: 1 ug/ml (from paragraph 380, not on the sheet))”.

B4: BIIB66A12 Fab (Fab, V domains shown)
VH: EVQLLESGGGLVQPGGSLRLSCAASGFTFSMYSMQWVRQAPGKGLEWVSVIGSSGGQTGYADSVKGRFTISRDNSKNTLYLQMNSLRAEDTAVYYCARVRDYYGSGSYYLDPWGQGTLVTVSS
VL: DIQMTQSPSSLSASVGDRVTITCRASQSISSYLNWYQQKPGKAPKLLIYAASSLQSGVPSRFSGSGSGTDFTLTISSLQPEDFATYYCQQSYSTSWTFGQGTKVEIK
notes: as for B1
For B4, the binding result is reported as “no binding (tested: 1 ug/ml (from paragraph 380, not on the sheet))” in the test with D1-D2 Her2-Fc and “no binding (tested: 1 ug/ml (from paragraph 380, not on the sheet))” in the test with D1 Her2-Fc.

B5: BIIB65B03 Fab (Fab, V domains shown)
VH: EVQLLESGGGLVQPGGSLRLSCAASGFTFSWYRMNWVRQAPGKGLEWVSSIYSSGGPTNYADSVKGRFTISRDNSQNTLYLQMNSLRAEDTAVYYCTREKPDYYDSSGYLDYWGQGTLVTVSS
VL: DIQMTQSPGTLSLSPGERSTLSCRASQSVSSSYLAWYQQKPGQAPRLLIYGASSRATGIPDRFSGSGSGTDFTLTISRLEPEDFGVYYCHQYGRPPVFGPGTKVDIK
notes: as for B1
Take B5: the binding result with D1-D2 Her2-Fc was “no binding (tested: 1 ug/ml (from paragraph 380, not on the sheet))”; with D1 Her2-Fc it was “no binding (tested: 1 ug/ml (from paragraph 380, not on the sheet))”.

B6: BIIB71F10 Fab (Fab, V domains shown)
VH: EVQLLESGGGLVQPGGSLRLSCAASGFTFSSYGMVWVRQAPGKGLEWVSSISSSGGLTWYADSVKGRFTISRDNSKNTLYLQMNSLRAEDTAVYYCASPPGIAVARDYWGQGTLVTVSS
VL: DIQMTQSPSSLSASVGDRVTITCRASQGISNYLAWYQQKPGKVPKLLIYAASTLQSGVPSRFSGSGSGTDFTLTISSLQPEDVATYYCQKYNSALLTFGGGTKVEIK
notes: Soluble human Fab; also called Fab 71F10
For the molecule B6, the binding result with D1 Her2-Fc is “no binding (tested: 1 ug/ml (from paragraph 380, not on the sheet))”.
